Assays:
Conditions in all cases: source organism: Rickettsia bellii OSU 85-389
HLA-A*02:03 = experiment: IEDB peptide-MHC binding, purified MHC/direct/fluorescence; filed as Kd, often an IC50 or EC50 that approximates it; ≥ and ≤ were set here for values at or beyond the usual limits of such assays
HLA-A*02:12 = experiment: as above
HLA-A*02:19 = experiment: as above
HLA-A*03:01 = experiment: as above
HLA-A*24:03 = experiment: as above
HLA-A*26:01 = experiment: as above
HLA-A*68:02 = experiment: as above
HLA-B*27:03 = experiment: as above
HLA-B*46:01 = experiment: as above
HLA-B*57:01 = experiment: as above
HLA-A*01:01 = experiment: IEDB peptide-MHC binding, purified MHC/competitive/fluorescence; filed as Kd, often an IC50 or EC50 that approximates it; ≥ and ≤ were set here for values at or beyond the usual limits of such assays
HLA-A*11:01 = experiment: as above
HLA-A*23:01 = experiment: as above
HLA-A*30:01 = experiment: as above
HLA-A*30:02 = experiment: as above
HLA-A*66:01 = experiment: as above
HLA-B*07:02 = experiment: as above
HLA-B*08:01 = experiment: as above
HLA-B*14:02 = experiment: as above
HLA-B*27:05 = experiment: as above
HLA-B*40:01 = experiment: as above
HLA-B*44:02 = experiment: as above
HLA-B*53:01 = experiment: as above
HLA-B*58:01 = experiment: as above

Sequence EDFEIFYNL has a Kd (HLA-A*02:03) of at least 20 µM, a Kd (HLA-A*02:12) of at least 20 µM and a Kd (HLA-A*02:19) of at least 20 µM. For the same sequence, the Kd (HLA-A*03:01) was at least 20 µM, the Kd (HLA-A*24:03) was at least 20 µM and the Kd (HLA-A*26:01) was at least 20 µM. For the same sequence, the Kd (HLA-A*68:02) was 0.144 µM, the Kd (HLA-B*27:03) was at least 20 µM and the Kd (HLA-B*46:01) was at least 20 µM. For the same sequence, the Kd (HLA-B*57:01) was at least 20 µM, the Kd (HLA-A*01:01) was at least 5 µM and the Kd (HLA-A*11:01) was at least 5 µM. The Kd (HLA-A*23:01) was at least 5 µM, the Kd (HLA-A*30:01) was at least 5 µM and the Kd (HLA-A*30:02) was at least 5 µM. For the same sequence, the Kd (HLA-A*66:01) was at least 5 µM, the Kd (HLA-B*07:02) was at least 5 µM and the Kd (HLA-B*08:01) was at least 5 µM. The Kd (HLA-B*14:02) was at least 5 µM, the Kd (HLA-B*27:05) was at least 5 µM and the Kd (HLA-B*40:01) was at least 5 µM. The Kd (HLA-B*44:02) was at least 5 µM, the Kd (HLA-B*53:01) was at least 5 µM and the Kd (HLA-B*58:01) was at least 5 µM.

From the Immune Epitope Database (IEDB)
